For the series, the target named is T1, MdNAC1 (Malus domestica? (apple), UniProt D9ZJ87 1-280).
T1 sequence: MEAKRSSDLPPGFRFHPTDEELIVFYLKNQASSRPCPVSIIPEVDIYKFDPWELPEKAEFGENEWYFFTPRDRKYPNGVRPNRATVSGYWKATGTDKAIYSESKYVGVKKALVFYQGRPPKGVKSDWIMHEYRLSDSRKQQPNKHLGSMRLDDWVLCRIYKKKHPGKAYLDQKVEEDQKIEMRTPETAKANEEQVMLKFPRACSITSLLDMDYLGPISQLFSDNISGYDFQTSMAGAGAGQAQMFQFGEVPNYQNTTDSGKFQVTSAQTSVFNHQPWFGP
Nature of the series: EMSA; Chemiluminescent EMSA Kit (GS009, Beyotime); cold competitor 50x; buffer, salt, pH and temperature not stated. The following applies: protein: recombinant; tags: GST (pGEX-6p-1); chain copies: 2; label: biotin; blunt.

B1: MdEXP-A1-P2 binding probe (dsDNA)
DNA 1: TAACAACAAAATGTGCCTAACGTATACATGCAAAATAATTTACCT
DNA 2: AGGTAAATTATTTTGCATGTATACGTTAGGCACATTTTGTTGTTA
For the molecule B1, the binding result is reported as “binds”.

B2: MdEXP-A1-P1 binding probe (dsDNA)
DNA 1: TACATGCAAAATAATTTACCTACGTAATAAATAATAAATATTGTT
DNA 2: AACAATATTTATTATTTATTACGTAGGTAAATTATTTTGCATGTA
Regarding B2, the binding result is “binds”.

Values taken from publication PMC11744834, “Allelic variation in an expansin, MdEXP-A1, contributes to flesh firmness at harvest in apples”.
